From patent publication US20200369728A1, “PEPTIDOMIMETIC MACROCYCLES AND USES THEREOF” (Aileron Therapeutics, Inc., priority 2015, published 2020)
In brackets after ≈: the same amount, converted by molar mass. Several values for one entry are separate records, joined by “and”; a condition that tells them apart may be missing. Identical values can stand only once. One block for each molecule: values may come before it. Bridge positions count the residues as written; N and C are the ends. Square brackets hold non-standard residues; d marks the D form. Ends that are not written are not given here. Peptide text beside a SMILES is read from it. Phe(4-COOH) = N[C@@H](Cc1ccc(C(=O)O)cc1)C(=O)O; R8 = C=CCCCCCC[C@@](C)(N)C(=O)O; Cba = N[C@@H](CC1CCC1)C(=O)O; S5 = C=CCCC[C@](C)(N)C(=O)O

Columns and labels:
[1] = system: MCF-7; test: WST-1 / MTT cell proliferation assay, MCF-7 (single agents and combinations); type: cell-based, human; conditions: for effect on MCF-7 cell proliferation: single agent, 5 days; for IC50: Homo sapiens
Description: All media were supplemented with 10% (v/v) fetal calf serum, 100 units penicillin and 100 μg/ml streptomycin at 37° C. and 5% CO2. Prior to dosing, MCF-7 cells were switched to serum free medium and grown at 37° C. overnight.
One day prior to assaying, cells were trypsinized, counted and seeded at pre-determined densities in 96-well plates as follows: MCF-7, 5000 cells/well/200 μl; MOLT-3, 30,000 cells/well/200 μl. […] The WST-1 variant of the MTT assay was used to measure cell viability according to the manufacturer's protocol. WST-1 is a cell-impermeable, sulfonated tetrazolium salt that can be used to examine cell viability without killing the cells.
Combination index (CI) values were calculated using the CompuSyn software. The data were expressed as log(CI).
Cells were evaluated for viability by WST-1 assay or MTT assay 3-7 days after beginning the simultaneous treatments (FIGS. 25, 30 and 31).
Cells were evaluated for viability by WST-1 assay or MTT assay 3-7 days or 120 hrs after beginning treatment (FIGS. 24A and 35). […] Cells were evaluated for viability by WST-1 assay or MTT assay 3-7 days after beginning the simultaneous treatments (FIGS. 36 and 37).

[2] = system: DOHH-2; test: WST-1 / MTT cell viability, DOHH-2; type: cell-based, human; conditions: for IC50: Homo sapiens, DOHH-2, 72 h
Description: Initially, various DOHH-2 cell numbers were plated and evaluated 3-7 days later to determine the optimal number of cells to be plated and treatment duration.
(§1) A drug combination index plot was used to assess the synergistic, additive, or antagonistic properties of each combination treatment. […] Combination index (CI) values were calculated using the CompuSyn software. The data were expressed as log(CI).
The anticancer activity of the combination treatment was assessed based on the order of addition of the drugs.

[3] = system: MV4-11; test: WST-1 / MTT cell viability, MV4-11; conditions: MV4-11, sequential treatment, 72 hrs
Description: Initially, various MV4-11 cell numbers were plated and evaluated 3-7 days later to determine the optimal number of cells to be plated and treatment duration.
Cells were evaluated for viability by WST-1 assay or MTT assay 3-7 days after beginning treatment.
as §1

[4] = target: MDM2 (In-house, 41 kD) (UniProt Q00987); test: competitive fluorescence polarization, displacement of FAM-labeled linear peptide from MDM2; grade decoded by the scale of Table 4
[5] = target: T1, MDMX (In-house, 40 kD) (UniProt O15151); test: competitive fluorescence polarization, displacement of FAM-labeled linear peptide from MDMX; grade decoded by the scale of Table 4
T1 sequence (looked up): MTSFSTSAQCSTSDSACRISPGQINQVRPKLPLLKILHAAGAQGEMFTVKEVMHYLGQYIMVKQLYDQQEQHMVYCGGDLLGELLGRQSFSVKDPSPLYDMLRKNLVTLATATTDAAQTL

[6] = FIGURE 19
Description: Table printed on a drawing sheet, FIGURE 19
First reader's note: The table is an inset in a plot of solubility against the number of amino acids C-terminal to the cross-link.

[7] = MCF-7 breast cancer xenograft study, body weight and deaths; type: in vivo, mice; conditions: for mice died during treatment: 10 mice per group
Description: A negative control stapled peptide.

[8] = target: T2, MDMX (In-house, 40 kD) (UniProt O15151 1-120, limits assumed); test: competitive fluorescence polarization vs FAM-labeled linear peptide; column Ki (MDMX); grade means >1000 nM
T2 construct: also called MDM4
T2 sequence (looked up): T1 sequence (looked up)

[9] = target: T2, MDMX (In-house, 40 kD); test: competitive fluorescence polarization vs FAM-labeled linear peptide; column IC50 (MDMX); grade means >1000 nM
[10] = DOHH-2, sequential treatment, 72 hrs

Chain of MDM2 (In-house, 41 kD) (Q00987 1-125 limits assumed): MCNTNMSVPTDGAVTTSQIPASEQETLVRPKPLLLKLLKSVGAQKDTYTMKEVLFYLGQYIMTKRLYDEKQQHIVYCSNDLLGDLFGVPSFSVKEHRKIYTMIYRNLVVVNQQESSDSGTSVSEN

Molecule: CO[C@H]1C[C@@H]2CC[C@@H](C)[C@@](O)(O2)C(=O)C(=O)N2CCCC[C@H]2C(=O)O[C@H]([C@H](C)C[C@@H]2CC[C@@H](OCCO)[C@H](OC)C2)CC(=O)[C@H](C)/C=C(\C)[C@@H](O)[C@@H](OC)C(=O)[C@H](C)C[C@H](C)/C=C/C=C/C=C/1C [everolimus, reference compound]
effect on MCF-7 cell proliferation [1]: inhibited MCF-7 breast cancer cell proliferation with limited cell killing as a single agent

Molecule: O=P1(N(CCCl)CCCl)NCCCO1 (stereo not shown) [CTX, cyclophosphamide, reference compound]
order of addition: effect on cell growth, AP1 and CTX [2, 10]: suppressed DOHH-2 cell growth with or without AP1
IC50 ([2]; CTX + 0.07 μM AP1, DOHH-2, 72 hours): 411 µM
IC50 ([2]; CTX + 0.2 μM AP1, DOHH-2, 72 hours): 172 µM
IC50 ([2]; CTX + 0.6 μM AP1, DOHH-2, 72 hours): 258 µM
IC50 ([2]; CTX alone): 1980 µM

Molecule: Nc1ncn([C@@H]2O[C@H](CO)[C@@H](O)[C@H]2O)c(=O)n1 [azacitidine, reference compound]
order of addition: effect on cell growth, AP1 and azacitidine [3]: suppressed MV4-11 cell growth with or without AP1

IC50 [4]: < 0.01 µM
IC50 [5]: > 1 µM
Molecule: SP757, Ac-tawy$s8nf4CF3ekll$r5a-NH2 (peptide)

IC50 [4]: > 0.1 µM and < 1 µM
IC50 [5]: > 1 µM
Molecule: SP752, Ac-t$r5wya$r5f4CF3ekllr-NH2 (peptide)

Molecule: CC[C@]1(O)C[C@H]2CN(CCc3c([nH]c4ccccc34)[C@@](C(=O)OC)(c3cc4c(cc3OC)N(C=O)[C@H]3[C@@](O)(C(=O)OC)[C@H](OC(C)=O)[C@]5(CC)C=CCN6CC[C@]43[C@@H]65)C2)C1 [VCR, vincristine, reference compound]
order of addition: effect on cell growth, AP1 and VCR [2, 10]: suppressed DOHH-2 cell growth with or without AP1

IC50 [4]: < 0.01 µM
IC50 [5]: > 1 µM
Molecule: SP755, Ac-tawyanf4CF3e$r5llr$r5a-NH2 (peptide)

IC50 [4]: > 0.01 µM and < 0.1 µM
IC50 [5]: > 1 µM
Molecule: SP753, Ac-tawy$r5nf4CF3e$r5llr-NH2 (peptide)

IC50 [4]: > 0.1 µM and < 1 µM
IC50 [5]: > 1 µM
Molecule: SP754, Ac-tawya$r5f4CF3ek$r5lr-NH2 (peptide)

IC50 ([1]; MCF7, FUL + 0.4 μM Aileron peptide 1, MCF-7): 0.000261 µM
IC50 ([1]; MCF7, FUL alone, MCF-7): 0.000768 µM
Molecule: C[C@]12CC[C@@H]3c4ccc(O)cc4C[C@@H](CCCCCCCCC[S+]([O-])CCCC(F)(F)C(F)(F)F)[C@H]3[C@@H]1CC[C@@H]2O (stereo partly shown) [fulvestrant, reference compound]
effect on MCF-7 cell proliferation [1]: inhibited MCF-7 breast cancer cell proliferation with limited cell killing as a single agent

Molecule: CC(=O)N[C@@H](CC(C)C)C(=O)N[C@H](C(=O)N[C@@H](Cc1ccccc1)C(=O)N[C@]1(C)CCCCCCC=CCCC[C@@](C)(C(=O)N[C@@H](C)C(=O)N[C@@H](C)C(=O)N[C@@H](C)C(=O)N[C@@H](C)C(=O)N[C@@H](C)C(=O)N[C@@H](C)C(=O)N[C@H](C)C(N)=O)NC(=O)[C@H](CC(C)C)NC(=O)[C@H](CCC(N)=O)NC(=O)[C@H](C)NC(=O)[C@H](Cc2c[nH]c3ccccc23)NC(=O)[C@H](Cc2ccc(O)cc2)NC(=O)[C@H](C)NC1=O)[C@@H](C)O [SP316]
Solubility [6]: 5000 µg/mL (≈ 2570 µM)

IC50 [4]: > 0.01 µM and < 0.1 µM
IC50 [5]: > 1 µM
Molecule: SP756, Ac-t$s8wyanf4CF3e$r5llr-NH2 (peptide)

Molecule: CC[C@H](C)[C@H](NC(=O)[C@H](C)NC(=O)[C@H](C)NC(=O)[C@]1(C)CCCC=CCCCCCC[C@@](C)(NC(=O)[C@H](Cc2ccccc2)NC(=O)[C@@H](NC(=O)[C@H](CC(C)C)NC(C)=O)[C@@H](C)O)C(=O)N[C@@H](CCC(=O)O)C(=O)N[C@@H](Cc2ccc(C(=O)O)cc2)C(=O)N[C@@H](Cc2c[nH]c3ccccc23)C(=O)N[C@@H](C)C(=O)N[C@@H](CCC(N)=O)C(=O)N[C@@H](CC2CCC2)C(=O)N1)C(=O)N[C@H](C)C(N)=O [SP249] (Ac-LTF[R8]E[Phe(4-COOH)]WAQ[Cba][S5]AAI[dA]-NH2; staple 4-11)
mice died during treatment ([7]; […] three times per week iv): 4

IC50 [4]: > 0.01 µM and < 0.1 µM
IC50 [5]: > 1 µM
Molecule: SP758, Ac-tawya$s8f4CF3ekllr$r5a-NH2 (peptide)

Molecule: SP154 (LTFAEYWAQAASAA; not fully specified)
% BW Change ([7]; 30 mg/kg 3x/wk iv, Days 18-39): +5.7%
No. with ≥10% BW Loss ([7]; 30 mg/kg 3x/wk iv, Days 18-39): 0/10
No. with ≥20% BW Loss or death ([7]; 30 mg/kg 3x/wk iv, Days 18-39): 0/10
tolerability of dosing regimen ([7]; 30 mg/kg three times per week iv): well-tolerated
No. with ≥10% BW Loss ([7]; 40 mg/kg 2x/wk iv, Days 18-39): 0/10
No. with ≥20% BW Loss or death ([7]; 40 mg/kg 2x/wk iv, Days 18-39): 2/10 (2 deaths)
tolerability of dosing regimen ([7]; 40 mg/kg twice a week iv): not tolerable
mice died during treatment ([7]; 40 mg/kg twice a week iv): 2

Ki [8]: > 1 µM
IC50 [9]: > 1 µM
B1: SP252 (peptide)
peptide: LTAAEYWAQAASAA
modifications: not fully specified; N-terminal acetyl (Ac); $r8 = alpha-Me R8-octenyl-alanine and $ = alpha-Me S5-pentenyl-alanine joined by an all-carbon crosslinker; Cba = cyclobutyl alanine; C-terminal amide (NH2)
notes: also called Ac-LTA$r8EYWAQCba$SAA-NH2
